Results reported in US8492099B2, “Method of measuring enzymatic activity of adsorbed allergenic enzyme” (Alk-Abello A/S, priority 2005, dated 2013).

Key:
[1] = Papain enzyme activity fluorescence assay (activity measurements and Michaelis-Menten kinetic), papain/aluminium hydroxide adsorption experiment; assay type: biochemical
Protocol: After measuring the enzymatic activity the maximal slope of the progress curve was estimated using the software SoftMax® PRO Life Sciences Edition, Molecular Devices, 2001. After estimating the initial velocity of the experiments they were transferred to Prism and analyzed.
(§1) After adsorption 500 μL was taken out for further analysis and the rest of the mixture was centrifuged for 10 min at 400 rpm. The rest of the samples analysed follow the flow scheme in FIG. 12. Furthermore a control (Con) containing papain in Bis-Tris buffer in the absence of aluminium hydroxide was prepared.
Two types of enzymatic assays were performed: (i) activity measurements using a fixed substrate concentration to evaluate enzyme activity and (ii) Michaelis-Menten kinetic to estimate the kinetic parameters Vmax and KM.
All activity assays were conducted with BisTris buffer, pH 6.5, 5 mM DTT/, mM EDTA and Z-FR-AMC as substrate.

[2] = Adsorption of papain to aluminium hydroxide: protein concentration by A280; assay type: physicochemical; settings: 100 μg/mL papain, 1.14 mg/mL aluminium hydroxide, 1 h at 4° C.; ANOVA p-value=0.615
Description: The aromatic amino acids tryptophan, tyrosine and phenylalanine absorb ultraviolet light. However only tryptophan and tyrosine absorb at 280 nm and tryptophan absorbs 5 times more light than tyrosine. This is due to the […] transition in the indole ring of tryptophan where phenylalanine and tyrosine contains a phenyl group. The absorbance of a protein is linearly correlated with the amount of tryptophan and tyrosine in the protein, the length of the light path and the concentration of protein. This relationship is named Lambert-Beer's law and is given by: A=ε·l·c where A is the absorbance, ε is the molar absorption coefficient for the protein (determined by the amount of tryptophan and tyrosine in the protein) l is the length of the light path and c is the protein concentration. Thus from an absorbance measurement the concentration of protein can be estimated if the molar absorptivity coefficient is known. • Apparatuses • Lambda 800 UV/VIS Spectrometer, PerkinElmer™ • 100-QS, quartz cuvette, path length 1 cm, Hellma® • Materials and Reagents • 50 mM Bis-Tris pH 6.5, Sigma • 50 mM Tris pH 7.0, Sigma • 50 mM phosphate buffer pH 7.0, Merck • 2% Helmanex solution, Hellma Experimental Procedure
The spectrophotometer was turned on 30 min prior to use for a warm up period. […] After cleaning the cuvette 20 μL of sample was transferred to the cuvette and the absorbance was measured. […]

[3] = Adsorption of papain to aluminium hydroxide: active enzyme by active site titration with E-64; assay type: biochemical
Protocol: as §1
The active site titration was used to estimate the amount of active enzyme in the different samples. This is in contrast to the protein concentration estimated from A280 which represents the total protein content of the sample.

[4] = Papain activity over time in the absence of aluminium hydroxide; assay type: physicochemical; settings: 10 μg/mL papain in 50 mM Bis-Tris, 4° C.
Protocol: Papain was mixed with 50 mM Bis-Tris buffer to a final concentration of 10 μg/mL in a total volume of 500 μL. The mixture was incubated at 4° C. and samples were taken out at 0, 30 and 60 min. The samples were diluted and incubated for 10 min in buffer containing DTT and subsequently activity was measured after addition of substrate. […] Additional loss occurs until the initiation of the enzymatic assay.

[5] = Adsorbed: papain adsorbed to aluminium hydroxide (mix 2)
[6] = Control: papain in the absence of aluminium hydroxide
[7] = activity measurements, 30 μM Z-FR-AMC

B1: papain: cysteine protease Car p 1 from the plant Carica papaya, purified, Sigma; chosen as negative control (protein, UniProt P00784 134-345, looked up)
Papain: IPEYVDWRQKGAVTPVKNQGSCGSCWAFSAVVTIEGIIKIRTGNLNEYSEQELLDCDRRSYGCNGGYPWSALQLVAQYGIHYRNTYPYEGVQRYCRSREKGPYAAKTDGVRQVQPYNEGALLYSIANQPVSVVLEAAGKDFQLYRGGIFVGPCGNKVDHAVAAVGYGPNYILIKNSWGTGWGENGYIRIKRGTGNSYGVCGLYTSSFYPVKN
Vmax in Mix3 relative to Mix1 [1]: 7%
Vmax in solution (Sup1+Sup2) relative to Mix1 [1]: 97%
Km [1, 5]: 21 µM
Vmax [1, 5]: 44.1 ng/mL · s
kcat (Vmax/protein concentration, A280) [1, 5]: 14.58 s⁻¹
kcat (Vmax/protein concentration, active site titration) [1, 5]: 12.18 s⁻¹
Vmax [1, 6]: 373.9 ng/mL · s
kcat (Vmax/protein concentration, A280) [1, 6]: 5.13 s⁻¹
kcat (Vmax/protein concentration, active site titration) [1, 6]: 11.41 s⁻¹
Km ([1]; Control: papain in the absence of aluminium hydroxide, Z-FR-AMC, pH 6.5): 22 µM
Activity in Mix1 found in solution (Sup1+Sup2) [1, 7]: 96%
Activity of papain adsorbed to aluminium hydroxide (Mix3) [1, 7]: 8%
Difference between KM estimates of samples in presence and absence of aluminium hydroxide ([1]; one-way ANOVA p-value=0.999): no significant difference
Part of the enzyme not bound to the adjuvant ([1]; papain with aluminium hydroxide): 93%
Activity of the control lower than the activity of Mix1 ([1]; papain without vs with aluminium hydroxide): 17%
Adsorption of papain to aluminium hydroxide (A280, Con vs Sup1) [2]: does not adsorb significantly
Active papain adsorbed to aluminium hydroxide (Mix3) [3]: approximately 7%
Active papain in solution (Sup1+Sup2) [3]: 91%
Activity at 60 min lower than at 0 and 30 min (loss of activity) [4]: 7%
